Data set [1] concerns the target T1, Recombinant human mature SLPI (Secretory leukocyte protease inhibitor).
T1 chain: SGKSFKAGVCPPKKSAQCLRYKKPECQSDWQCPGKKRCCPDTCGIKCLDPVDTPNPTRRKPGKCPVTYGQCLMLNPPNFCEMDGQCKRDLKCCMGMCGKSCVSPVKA

The target of data set [2] is T2, Recombinant human mature SLPI (Secretory leukocyte protease inhibitor) (human, UniProt P03973 26-132).
T2 construct: Bought from R&D Systems (product number 1274-PI-100); also called full length SLPI; full-length SLPI
Kind of data set: sandwich ELISA, hybridoma supernatant as capture, biotinylated anti-SLPI PAb BAF1274 as detector. The procedure:
FIG. 4. Detection of C-SLPI in CF sputum samples. CF sputum samples were assayed via ELISA for the presence of C-SLPI using the supernatant from hybridoma clone C5.5 as a capture antibody. Standard curve generated by assaying known concentration of C-SLPI produced by incubation of recombinant SLPI with NE (A). C-SLPI concentrations in 63 sputum samples derived from CF patients as identified via ELISA using C5.5 as a capture antibody (B).
A Maxisorp plate (Nunc) was coated for 16 h at 4° C. with 100 μl/well hybridoma supernatant diluted 1:50 in Voller's reagent. Cell free hybridoma supernatants were acquired directly from individual cultures by centrifugation at 1,400 rpm for 5 min. The plate was blocked with 200 μl 1% BSA in PBST 0.05% (v/v) Tween 20 for 1 h at room temperature. Either a half concentration dilution series of 200 ng/ml to 3.125 ng/ml of both C-SLPI and SLPI (100 μl/well) in 1% BSA in PBST 0.05% (v/v) Tween 20 or CF sputum samples diluted 1:50 v/v in 1% BSA in PBST 0.05% (v/v) Tween 20 were added to the plate and incubated for 2 h at room temperature. Control wells received NE alone. […] The absorbance at 405 nm of wells was measured on a microtiter plate reader (Genios using Magellan software) and results were analyzed using GraphPad Prism version 6 (GraphPad Software).

B1: Human neutrophil elastase (human sputum derived NE, Elastin Products SE563) (protein)
chain: IVGGRRARPHAWPFMVSLQLRGGHFCGATLIAPNFVMSAAHCVANVNVRAVRVVLGAHNLSRREPTRQVFAVQRIFENGYDPVNLLNDIVILQLNGSATINANVQVAQLPAQGRRLGNGVQCLAMGWGLLGRNRGIASVLQELNVTVVTSLCRRSNVCTLVRGRQAGVCFGDSGSPLVCNGLIHGIASFVRGGCASGLYPDAFAPVAQFVNWIDSIIQ
In the case of B1, in data set [1], the “SLPI cleavage by NE (Western blot)” value is “Successful cleavage of SLPI was observed at molar ratios of 1:4, 1:8 and 1:10 SLPI to NE”.

B2: C5.5 monoclonal antibody (supernatant of hybridoma clone C5.5) (antibody, V domains shown)
VH: EVQLVESGGGLVHPQGSLKLSCTASGFTFNTYDMNWVRQAPGKGLEWVARIRTKSYYYATYYADSVKDRFTISRDDSQTMLYLQLNNLKTEDTALYYCVRRSGNYGAMDYWGQGTSVTVSS
VL: QIVLTQSPAIMSASLGERVTMTCTASSSVSSSYLHWYQQKPGSSPKLWIYSTSNLASGVPARFSGSGSGTSYSLTISSMEAEDAATYYCHQYHRSPRTFGGGTKLEIK
notes: Used as cell-free hybridoma supernatant coated on the plate (capture antibody); also called C5.5 supernatant
With B2, in data set [2], the binding result is “no binding (tested: 200 ng/ml to 3.125 ng/ml)”.

For the origin of these results see US20170212117A1 (RANDOX LABORATORIES, published 2017).
